Our source for the inhibition rate (%) and fold reduction of off-rate against the wild type values is patent publication US20220073608A1.

Experiment [1] addresses T1, human SEMA4D, full length, on CHO-K1 cells (CHO-K1 hSEMA4D) (human) (UniProt Q92854).
T1 sequence (looked up): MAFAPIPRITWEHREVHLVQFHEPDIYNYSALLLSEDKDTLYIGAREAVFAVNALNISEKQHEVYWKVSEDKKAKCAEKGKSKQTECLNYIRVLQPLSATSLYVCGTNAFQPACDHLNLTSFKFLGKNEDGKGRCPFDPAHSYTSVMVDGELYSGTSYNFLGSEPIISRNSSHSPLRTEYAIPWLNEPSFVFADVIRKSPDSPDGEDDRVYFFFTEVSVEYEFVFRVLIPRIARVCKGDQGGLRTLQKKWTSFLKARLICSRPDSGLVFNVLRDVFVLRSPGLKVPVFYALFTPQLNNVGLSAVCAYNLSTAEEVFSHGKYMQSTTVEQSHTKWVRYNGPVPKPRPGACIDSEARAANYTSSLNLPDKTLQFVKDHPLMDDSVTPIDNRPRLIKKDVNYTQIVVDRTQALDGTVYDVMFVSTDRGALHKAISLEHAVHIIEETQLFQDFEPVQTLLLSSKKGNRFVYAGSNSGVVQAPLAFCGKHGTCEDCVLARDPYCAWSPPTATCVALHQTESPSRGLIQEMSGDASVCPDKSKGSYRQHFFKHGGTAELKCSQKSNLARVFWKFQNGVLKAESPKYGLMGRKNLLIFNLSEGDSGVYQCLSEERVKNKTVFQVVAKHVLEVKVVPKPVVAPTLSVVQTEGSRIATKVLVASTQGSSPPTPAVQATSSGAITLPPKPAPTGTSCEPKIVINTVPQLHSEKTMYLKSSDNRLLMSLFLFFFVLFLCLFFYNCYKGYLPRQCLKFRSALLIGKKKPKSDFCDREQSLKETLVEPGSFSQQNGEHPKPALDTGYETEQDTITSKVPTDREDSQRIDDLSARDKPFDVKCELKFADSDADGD
As to the kind of experiment: competitive FACS, CHO-K1 hSEMA4D cells; unlabelled Ab 6 ug/mL first, competitor Alexa 488-2D5 0.67 ug/mL.

In experiment [2] the target is T1, human SEMA4D, full length, on CHO-K1 cells (CHO-K1 hSEMA4D) (human). As to the kind of experiment: competitive FACS, CHO-K1 hSEMA4D cells; unlabelled Ab 6 ug/mL first, competitor Alexa 488-VX15 0.67 ug/mL.
The target is the same in experiment [3]. The experiment is described as follows: competitive FACS, CHO-K1 hSEMA4D cells; unlabelled Ab 6 ug/mL first, competitor Alexa 488-5D8 0.67 ug/mL.
Experiment [4] deals with T2, biotinylated hSEMA4D ECD-His (human) (UniProt Q92854).
T2 sequence (chain, biotinylated with Biotin-X-X-NHS at a molar ratio of 8,1; sites not stated): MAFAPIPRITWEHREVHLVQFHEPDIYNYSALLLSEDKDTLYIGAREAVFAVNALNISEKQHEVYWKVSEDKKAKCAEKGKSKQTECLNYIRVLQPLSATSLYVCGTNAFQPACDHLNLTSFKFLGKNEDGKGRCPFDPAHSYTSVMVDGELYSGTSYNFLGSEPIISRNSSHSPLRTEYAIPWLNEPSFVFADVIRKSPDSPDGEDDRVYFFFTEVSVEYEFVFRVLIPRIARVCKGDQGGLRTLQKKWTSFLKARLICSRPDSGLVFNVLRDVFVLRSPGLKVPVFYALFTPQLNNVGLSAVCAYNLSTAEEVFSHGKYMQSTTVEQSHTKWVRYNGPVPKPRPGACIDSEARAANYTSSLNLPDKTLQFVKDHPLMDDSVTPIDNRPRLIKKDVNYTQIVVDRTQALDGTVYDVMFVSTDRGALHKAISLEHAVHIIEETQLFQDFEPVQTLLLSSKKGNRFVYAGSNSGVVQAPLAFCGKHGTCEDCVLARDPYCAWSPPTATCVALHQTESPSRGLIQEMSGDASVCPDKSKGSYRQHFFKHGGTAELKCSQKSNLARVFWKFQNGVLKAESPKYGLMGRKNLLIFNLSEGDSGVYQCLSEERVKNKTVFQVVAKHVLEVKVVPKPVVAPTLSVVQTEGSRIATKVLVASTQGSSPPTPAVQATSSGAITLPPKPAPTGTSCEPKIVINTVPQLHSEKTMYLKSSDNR
As to the kind of experiment: BLI (Octet-Red), scFv in bacterial periplasmic extract; off-rate ranking. For orientation: Biolayer interferometry detects binding as a change in optical thickness at a sensor tip.

B1: VX15 (antibody, INN chains, looked up, V domains shown)
VH: QVQLVQSGAEVKKPGSSVKVSCKASGYSFSDYYMHWVRQAPGQGLEWMGQINPTTGGASYNQKFKGKATITVDKSTSTAYMELSSLRSEDTAVYYCARYYYGRHFDVWGQGTTVTVSS
VL: DIVMTQSPDSLAVSLGERATINCKASQSVDYDGDSYMNWYQQKPGQPPKLLIYAASNLESGVPDRFSGSGSGTDFTLTISSLQAEDVAVYYCQQSNEDPYTFGQGTKLEIK
Turning to B1, the inhibition rate (%) in experiment [1] stood at 96%; in experiment [2], 97%; in experiment [3], 98%.

B2: 2D5-b1-3D9 scFv (periplasmic extract) (scFv, part only; not given: linker, domain order, tags, V domains shown, not shown: another chain or arm of the molecule; large carriers; small tags and cut ends)
VH: QVTLRESGPALVKPTQTLTLTCTFSGFSLTTTGVAVTWIRQPPGKALEWLALIDWDDDKYYSTSLKTRLTISKDTSKNQVVLTMTNMDPVDTATYYCARIASGDSGGYFADWGQGTLVTVSS
VL: SYELTQPPSVSVSPGQTASITCSGDKLDDKYVYWYQQKPGQSPVLVIYMDNKRKSGIPERFSGSNSGNTATLTISGTQAMDEADYYCQAWESSSDQYVFGTGTKVTVL
Consider B2, for which, in experiment [4], the fold reduction of off-rate against the wild type turned out to be 45 times.
